US9028816 (Ablynx, dated 2015)

Key:
[1] = target: T1, collagen type I; assay: ELISA: collagen type I coated at 25 µg/ml, purified VHH in twofold dilutions, detection as in Example 7 (Example 34) [collagen type I]
T1 construct: coated on the microtiter plate

[2] = target: T2, mouse serum albumin (MSA) (mouse, UniProt P07724 25-608); assay: ELISA: MSA coated at 5 µg/ml, purified nanobody in 1/3 dilutions, detection with rabbit anti-nanobody serum and anti-rabbit alkaline phosphatase, PNPP (Example 50)
T2 construct: also called mouse albumin
T2 sequence (P07724 25-608 limits assumed): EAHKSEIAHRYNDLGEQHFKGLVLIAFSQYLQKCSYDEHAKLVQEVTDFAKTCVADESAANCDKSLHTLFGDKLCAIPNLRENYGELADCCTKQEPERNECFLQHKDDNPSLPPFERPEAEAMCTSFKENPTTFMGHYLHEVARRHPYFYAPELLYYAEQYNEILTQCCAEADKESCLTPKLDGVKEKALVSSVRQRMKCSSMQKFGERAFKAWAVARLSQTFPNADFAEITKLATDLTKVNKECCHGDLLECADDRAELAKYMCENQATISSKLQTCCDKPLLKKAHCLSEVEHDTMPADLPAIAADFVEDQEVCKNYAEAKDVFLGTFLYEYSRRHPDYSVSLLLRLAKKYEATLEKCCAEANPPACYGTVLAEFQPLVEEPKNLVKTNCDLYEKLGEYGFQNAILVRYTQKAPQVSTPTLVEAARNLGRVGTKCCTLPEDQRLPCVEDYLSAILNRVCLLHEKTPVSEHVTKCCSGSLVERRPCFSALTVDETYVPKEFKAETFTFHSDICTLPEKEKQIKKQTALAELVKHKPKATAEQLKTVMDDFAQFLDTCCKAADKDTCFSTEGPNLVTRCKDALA

[3] = target: pig serum albumin (pig, UniProt P08835 25-607); assay: phage on blotted plasma (1/10)
Chain of pig serum albumin (P08835 25-607 limits assumed): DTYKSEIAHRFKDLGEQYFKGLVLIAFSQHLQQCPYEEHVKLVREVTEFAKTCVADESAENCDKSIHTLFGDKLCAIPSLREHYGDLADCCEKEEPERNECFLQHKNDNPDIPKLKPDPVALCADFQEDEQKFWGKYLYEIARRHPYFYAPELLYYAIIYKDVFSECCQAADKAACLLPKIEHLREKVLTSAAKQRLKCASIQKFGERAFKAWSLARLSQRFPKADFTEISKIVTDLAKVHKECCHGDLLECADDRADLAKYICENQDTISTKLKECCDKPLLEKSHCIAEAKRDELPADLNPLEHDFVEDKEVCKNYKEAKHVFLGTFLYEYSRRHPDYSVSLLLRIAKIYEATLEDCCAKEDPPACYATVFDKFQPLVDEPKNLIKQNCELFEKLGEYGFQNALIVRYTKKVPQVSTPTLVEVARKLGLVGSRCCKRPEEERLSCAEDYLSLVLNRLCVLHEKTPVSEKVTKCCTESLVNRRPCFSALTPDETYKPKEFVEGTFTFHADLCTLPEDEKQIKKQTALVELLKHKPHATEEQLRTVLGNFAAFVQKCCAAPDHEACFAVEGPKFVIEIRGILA

[4] = target: human serum albumin (HSA) (human, UniProt P02768 25-609); assay: phage on blotted plasma (1/10)
[5] = target: T3, human von Willebrand factor (vWF) (human, UniProt P04275 764-2813); assay: ELISA: coated vWF, purified vWF A1-specific VHH, as in Example 7 (Example 20)
T3 construct: also called Human vWF

B1: 3P1-31 (VHH)
VHH: QVQLQESGGGLVQAGGSLRLSCAASGRTFRRYAMGWYRQAPGKQRELVAAITSGGRTSVADTVKGRFTISSDNAKNTVYLQMNSLKPEDAAVYYCTLYNSTTNYYNQSPSSWGQGTQVTVSS
[1]
  EC50 (read off the curve): ~200 nM

B2: MSA24 (VHH)
VHH: QVQLQESGGGLVQPGNSLRLSCAASGFTFRNFGMSWVRQAPGKEPEWVSSISGSGSNTIYADSVKDRFTISRDNAKSTLYLQMNSLKPEDTAVYYCTIGGSLSRSSQGTQVTVSS
[2]
  EC50 (read off the curve): ~0.6 nM
[3]
  binding result: binds
[4]
  binding result: binds

B3: 3L-41 (VHH)
VHH: QVQLQDSGGGLVQAGGSLRLSCAASGRTFRRYAMGWYRQAPGKQRVLVAAITSNGRPSVADSVKGRFTISSDTAKNTVYLQMNSLKPEDTALYYCTLYNTSADYYNQSPSSWGQGTQVTVLS
[1]
  EC50 (read off the curve): ~10 nM

B4: Z29 (VHH)
VHH: QVQLQESGGGSVQAGDSLTLSCAASGRTFSMHAMGWFRQAPGKEREFVAAISPSAFTEYADSLKGRFTVSRDNAKKLVWLQMNGLKPEDTAAYYCAARRGAFTATTAPLYDYWGQGTQVTVSS
[5]
  EC50 (read off the curve): ~70 nM
